# Assay results from US10272233B2, “Method to fabricate polymeric microneedles” (National University of Singapore, priority 2012, dated 2019).
# What was measured:
# [1] = Fluorescence spectroscopy, tertiary structure stability of BSA in microneedles; assay type: physicochemical; settings: excitation 280 nm
# Description: In order to evaluate the tertiary structural changes in the protein conformation, fluorescence spectra was analyzed for protein samples. […] The emission spectra were studied in the range of 300-400 nm at a fixed excitation wavelength of 280 nm using a Hitachi F-7000 fluorescence spectrophotometer. The fluorescence intensities were plotted against wavelength as an average of triplicate measurements.
# [2] = Circular dichroism, secondary structure stability of BSA in microneedles; assay type: physicochemical; settings: far UV CD 260-200 nm; microneedle release samples stored 3 days at 37° C.; degraded control: 75° C. or pH 2
# Description: Circular dichroism (CD) spectroscopy was performed on the samples to evaluate the secondary structural characteristics of bovine serum albumin in the fabricated microneedles. The analysis was performed in a Jasco J-810 spectropolarimeter (Jasco, Tokyo, Japan) with a 1 mm light path quartz cell (Helima, Müllheim, Germany). Data was acquired at a bandwidth of 0.1 nm with a scan speed of 50 nm/min and a response time of 8 seconds. […] The microneedle release samples were first filtered using micro-centrifugal concentrators, (30 kDa cut-off) (Vivaspin 20, GE, UK) to separate the protein from polymer. Average value from triplicate measurements was used to plot the curve of molar ellipticity to wavelength. Molar ellipticity was calculated using the following equation: […]
# The percentage of α-helix was calculated from the following equation
# [formula] Tertiary Structure Stability
# [3] = In vitro release of rhodamine B from microneedle arrays in 1×PBS at 37° C.; assay type: physicochemical; settings: within the first hour, rhodamine B encapsulated in PEGDA microneedles and backing layer
# Description: Encapsulation of a Model Drug: Imaging and In Vitro Release Rhodamine B was dissolved in the prepolymer solution at a concentration of 0.09, 0.17 and 0.44 weight %, respectively. The drug-laden microneedle samples were imaged using a fluorescence stereomicroscope (Nikon, Japan). The amount of drug encapsulated in the microneedles was calculated from the percent weight of the drugs in the prepolymer solution and the weight of fabricated microneedles. Selective incorporation of rhodamine B in the backing layer or microneedle shafts was made possible by using the prepolymer solutions containing the model drug to fabricate the backing layer or microneedles respectively. In vitro release of rhodamine B was tested by suspending fabricated microneedle arrays in 15 ml of 1×PBS, at 37° C. and sampled at regular intervals. At each sampling point, the whole 15 ml of release medium was withdrawn and replaced with 15 ml of fresh 1×PBS. The samples were stored at 4° C. before analysis. The amount released was quantified by measuring rhodamine B fluorescence at excitation and emission wavelengths of 554 nm and 586 nm, respectively, with a Tecan 2000 microplate reader (Tecan, Austria). In Vitro Permeation Through Rat Skin
# [4] = cited from earlier work
# [5] = Collagen permeation through microneedle pretreated rat skin (confocal fluorescence); assay type: in vitro ADME
# Description: Microneedles of the longest range of length were inserted into excised rat abdominal skin. Hair and fat were removed as mentioned previously. The skin was fully stretched on a thin layer of PDMS to mimic tissue-like mechanical support. A force of 10 N was applied using the digital force gauge (Dillon GL, USA) for 2 minutes. Bovine skin collagen type 1, FITC conjugate (MW=300 kDa) of concentrations 0.025, 0.050 and 0.075% w/v was obtained by diluting the stock collagen solution (0.1% w/v) withappropriate amount of 0.1 M Tris-HCl buffer (pH 7.8) containing 0.4 M NaCl, 10 mM CaCl2 and 0.25 M glucose. NaCl and CaCl2 aid in stabilizing the collagen molecules and glucose is added to prevent gelation of the collagen fibers. Each collagen concentration was applied to separate skin samples at the area of insertion. The time of contact between the collagen solution and the skin was kept constant at 4 hours at room temperature, after which excess collagen on the skin surface was removed using Kimwipe (Kimberly-Clark, Roswell, Ga.). The degree of permeation of collagen through the skin was quantified by using the A-1R confocal microscope (Nikon, Japan) to observe the fluorescence intensity of collagen type 1, FITC conjugate at excitation and emission wavelengths of 490 nm and 520 nm respectively. […]
molecule,measurement,setting,value
standard solution of BSA: standard BSA solution 0.026 mg/ml in purified water,emission maximum,"[1]; standard BSA solution, scanned 300-400 nm",338 nm
degraded BSA: BSA degraded by heating at 75° C. and under acidic conditions of pH 2,secondary structure / ellipticity by circular dichroism,[2],significantly lower ellipticity values
same,fluorescence,"[1]; BSA denatured using heat or acid, emission 300-400 nm",did not show any fluorescence
"CCN(CC)c1ccc2c(-c3ccccc3C(=O)O)c3ccc(=[N+](CC)CC)cc-3oc2c1.[Cl-] [rhodamine B, Rhodamine B]",encapsulated drug released,[3],~30%
same,log P,[4],2.43
O=C(O)CN(CC(=O)O)Cc1cc2c(cc1O)Oc1cc(O)c(CN(CC(=O)O)CC(=O)O)cc1C21OC(=O)c2ccccc21 [calcein],log P,[4],−5.02
"bovine collagen type 1, FITC conjugate: model macromolecule, MW=300 kDa, applied to microneedle pretreated skin",diffusion of collagen molecules after treatment of skin with microneedles,[5],greatly enhanced
